± gives the uncertainty stated by the source.
Assay: self-splicing fitness, log relative to wild type (ln ratio); higher = more splicing; Tetrahymena group I intron in knt gene, E. coli kanamycin selection, DiMSum; sequences stand for … in CUCUCU…GGAGGGAAAAGUUAUCAGGCAUGCACCUGGUAGCUAGUCUUUAAACCAAUAGAUUGCAUCGGUUUAAAAGGCAAGACCGUCAAAUUGCGGGAAAGGGGUCAACAGCCGUUCAGUACCAAGUCUCAGGGGAAACUUUGAGAUGGCCUUGCAAAGGGUAUGGUAAUAAGCUGACGGACAUGGUCCUAACCACGCAGCCAAGUCCUAAGUCAACAGAUCUUCUGUUGAUAUGGAUGCAGUUCACAGACUAAAUGUCGGUCGGGGAAGAUGUAUUCUUCUCAUAAGAUAUAGUCGGACCUCUCCUUAAUGGGAGCUAGCGGAUGAAGUGAUGCAACACUGGAGCCGCUGGGAACUAAUUUGUAUGCGAAAGUAUAUUGAUUAGUUUUGGAGUACUCGUGGUCG
Outline: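 Library with all eight P1ex-region intron nucleotides randomised, intron inside the knt kanamycin-resistance gene on pET-22b(+), in E. coli BL21(DE3). Cells grew overnight at 37°C or 30°C on LB agar with or without 25 μg/mL kanamycin (plus 100 μg/mL carbenicillin, 50 μM IPTG, 0.2% rhamnose), in six replicate transformations. Pooled colonies were amplicon-sequenced on Illumina HiSeq 2500. DiMSum fitness is the error-weighted combination of wild-type-normalised replicate fold changes, kanamycin versus none.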

Row | Sequence | self-splicing fitness (ln) (30 °C) | self-splicing fitness (ln) (37 °C)
1 | AGACAGCAAUAUUACGACAA | -1.34 ± 0.12 | -1.02 ± 0.12
2 | UUCGAGCAAUAUUACGGUAC | -3.39 ± 0.27 | -2.62 ± 0.44
3 | UCCGAGCAAUAUUACGUUGU | -2.89 ± 0.14 | -2.96 ± 0.22
4 | AUUUAGCAAUAUUACGACCU | 0.0405 ± 0.29 | 0.114 ± 0.29
5 | ACGCAGCAAUAUUACGCGGG | -2.94 ± 0.12 | -0.419 ± 0.099
6 | AUGGAGCAAUAUUACGGCGU | 0.125 ± 0.14 | 0.224 ± 0.14
7 | ACAAAGCAAUAUUACGGCGG | -0.226 ± 0.08 | -0.154 ± 0.092
8 | UAGCAGCAAUAUUACGUGUG | -1.63 ± 0.064 | -0.7 ± 0.08
9 | GCAGAGCAAUAUUACGGUAG | -1.82 ± 0.27 | -0.285 ± 0.44
10 | UGAAAGCAAUAUUACGUACA | -0.776 ± 0.044 | 0.0429 ± 0.066
11 | GGUGAGCAAUAUUACGGGCA | -1.68 ± 0.17 | -0.406 ± 0.17
12 | AGAAAGCAAUAUUACGUCUG | -0.808 ± 0.043 | -0.1 ± 0.063
13 | CGACAGCAAUAUUACGGUAC | -4.52 ± 0.36 | -2.09 ± 0.2
14 | GGCAAGCAAUAUUACGCUUA | -0.449 ± 0.076 | 0.129 ± 0.1
15 | GUUGAGCAAUAUUACGCACU | -1.26 ± 0.15 | -0.723 ± 0.2
16 | GCCCAGCAAUAUUACGUGGU | -4 ± 0.18 | -1.9 ± 0.14
17 | GCCCAGCAAUAUUACGGCAA | -2.55 ± 0.19 | -0.273 ± 0.11
18 | UGCAAGCAAUAUUACGCGCU | -1.28 ± 0.12 | -0.818 ± 0.12
19 | AGACAGCAAUAUUACGCGGU | -3.61 ± 0.21 | -2.4 ± 0.22

Row | Sequence | self-splicing fitness (ln) (30 °C) | self-splicing fitness (ln) (37 °C)
20 | UUGUAGCAAUAUUACGAGUU | -3.22 ± 0.25 | -2.61 ± 0.26
21 | UCGAAGCAAUAUUACGACUC | – | 0.412 ± 0.47
22 | CUCCAGCAAUAUUACGUGAA | -1.24 ± 0.065 | -0.328 ± 0.09
23 | UACGAGCAAUAUUACGCGUG | -4.43 ± 0.3 | -2.7 ± 0.21
24 | UUGGAGCAAUAUUACGUACA | – | 0.204 ± 0.28
25 | UUGCAGCAAUAUUACGAUGU | -3.3 ± 0.16 | -3.09 ± 0.3
26 | AUAAAGCAAUAUUACGGGUA | -0.752 ± 0.082 | -1.06 ± 0.1
27 | CGUUAGCAAUAUUACGACCU | -0.403 ± 0.2 | -0.596 ± 0.18
28 | GCUCAGCAAUAUUACGCGCG | -1.03 ± 0.071 | -0.194 ± 0.091
29 | UGCAAGCAAUAUUACGACCU | -0.737 ± 0.07 | -0.219 ± 0.089
30 | CUACAGCAAUAUUACGCAAU | -3.8 ± 0.4 | -2.86 ± 0.4
31 | CUGCAGCAAUAUUACGUAGC | -2.66 ± 0.15 | -1.95 ± 0.18
32 | AGCCAGCAAUAUUACGGCUG | -2.52 ± 0.17 | -1.53 ± 0.2
33 | CAUUAGCAAUAUUACGUCGG | -0.0974 ± 0.13 | 0.403 ± 0.14
34 | UAUCAGCAAUAUUACGUUUG | -1.4 ± 0.068 | -0.266 ± 0.092
35 | CAGCAGCAAUAUUACGUUCU | -2.35 ± 0.072 | -1.4 ± 0.081
36 | CGUAAGCAAUAUUACGCAUU | -3.95 ± 0.28 | -2.68 ± 0.18
37 | ACACAGCAAUAUUACGAACG | -0.869 ± 0.048 | -0.185 ± 0.068
38 | ACCUAGCAAUAUUACGACUG | -2.84 ± 0.15 | -1.46 ± 0.18
